Source: patent US20220289798A1 (published 2022)
Positions count from the first letter of the chain named. In names and notes the source's numbering stands.

Tests used:
Gp120 [1] = molecular target: Gp120 (HIV); assay: ELISA
Gp120 [2] = molecular target: Gp120 (HIV); assay: indirect ELISA; indirect ELISA
Gp120 [3] = molecular target: Gp120 (HIV); assay: direct ELISA; direct ELISA

B1: Q 20K (other)
chain: MSLTHRKFGGSGGSPFSGLSSIAVRSGSYLDAIIIDGVHHGGSGGNLSPTFTFGSGEYISNMTIRSGDYIDNISFETNQGRRFGPYGGSGGSANTLSNVKVIQINGSAGDYLDSLDIYYEQY
modifications: 20,000 MW PEG coupled by NHS ester to a primary amine. The candidate sites are Lys pos 7 and Lys pos 100, both written K. At least one PEG per dimer. The exact site and number of PEGs are not determined.
Question: Which EC50 (Gp120 [1]) does the source give for B1 here?
Answer: 33.6 ng/mL

Question: And the EC50 (Gp120 [2])?
Answer: 16.3 ng/mL

B2: CK 20K (other)
chain: MSLTHRRFGGSGGSPFSGLSSIAVRSGSYLDAIIIDGVHHGGSGGNLSPTFTFGSGEYISNMTIRSGDYIDNISFETNQGRRFGPYGGSGGSANTLSNVRVIQINGSAGDYLDSLDIYYEQYK
modifications: 20,000 MW PEG coupled by NHS ester to a primary amine. The intended site is the added C-terminal Lys, pos 123, written K. At least one PEG per dimer. The exact site and number of PEGs are not determined.
Question: B2 was tested. Which EC50 (Gp120 [1]) did it give?
Answer: 90.5 ng/mL

Question: What about the EC50 (Gp120 [2]) of the same binder?
Answer: 14.1 ng/mL

B3: NK 20K Direct (other)
chain: MKSLTHRRFGGSGGSPFSGLSSIAVRSGSYLDAIIIDGVHHGGSGGNLSPTFTFGSGEYISNMTIRSGDYIDNISFETNQGRRFGPYGGSGGSANTLSNVRVIQINGSAGDYLDSLDIYYEQY
modifications: 20,000 MW PEG coupled by NHS ester to a primary amine. The intended site is the added N-terminal Lys, pos 2, written K; the N-terminal amine is also possible. At least one PEG per dimer. The exact site and number of PEGs are not determined.
Question: For B3, which EC50 (Gp120 [3]) is on record?
Answer: 0.0173 ng/mL

B4: M78K 20K (other)
chain: B1 chain with K7R, Q79K, K100R
modifications: chain 1 pos 79: Lys carrying 20,000 MW PEG by NHS-ester amine coupling, written K. It is the only lysine in the chain. At least one PEG per dimer. The exact site and occupancy were not measured.
Question: B4 was tested. Which EC50 (Gp120 [1]) did it give?
Answer: 304 ng/mL

Question: And the EC50 (Gp120 [2])?
Answer: 19.2 ng/mL

B5: M78K 2K (other)
chain: B1 chain with K7R, Q79K, K100R
modifications: chain 1 pos 79: Lys carrying 2,000 MW PEG by NHS-ester amine coupling, written K. It is the only lysine in the chain. At least one PEG per dimer. The exact site and occupancy were not measured.
Question: How did the EC50 (Gp120 [1]) turn out when B5 was run?
Answer: 33.8 ng/mL

Question: And the EC50 (Gp120 [2])?
Answer: 10.9 ng/mL

B6: Q (other)
chain: B1 chain
Question: How did the EC50 (Gp120 [1]) turn out when B6 was run?
Answer: 8.38 ng/mL

B7: CK 20K Direct (other)
chain: B2 chain
modifications: 20,000 MW PEG coupled by NHS ester to a primary amine. The intended site is the added C-terminal Lys, pos 123, written K. At least one PEG per dimer. The exact site and number of PEGs are not determined.
Question: How did the EC50 (Gp120 [3]) turn out when B7 was run?
Answer: 0.029 ng/mL

B8: M78K2K Rx Direct (other)
chain: B1 chain with K7R, Q79K, K100R
modifications: chain 1 pos 79: Lys carrying 2,000 MW PEG by NHS-ester amine coupling, written K. It is the only lysine in the chain. At least one PEG per dimer. The exact site and occupancy were not measured.
Question: How did the EC50 (Gp120 [3]) turn out when B8 was run?
Answer: 0.332 ng/mL

B9: NK 2K Direct (other)
chain: B3 chain
modifications: 2,000 MW PEG coupled by NHS ester to a primary amine. The intended site is the added N-terminal Lys, pos 2, written K; the N-terminal amine is also possible. At least one PEG per dimer. The exact site and number of PEGs are not determined.
Question: With B9 as the binder, how does the EC50 (Gp120 [3]) read?
Answer: 0.0875 ng/mL

B10: M78K20K Rx (other)
chain: B1 chain with K7R, Q79K, K100R
modifications: chain 1 pos 79: Lys carrying 20,000 MW PEG by NHS-ester amine coupling, written K. It is the only lysine in the chain. At least one PEG per dimer. The exact site and occupancy were not measured.
Question: With B10 as the binder, how does the EC50 (Gp120 [3]) read?
Answer: 0.0624 ng/mL

B11: CK (other)
chain: B2 chain
Question: For B11, which EC50 (Gp120 [1]) is on record?
Answer: 10.5 ng/mL

B12: NK 20K (other)
chain: B3 chain
modifications: 20,000 MW PEG coupled by NHS ester to a primary amine. The intended site is the added N-terminal Lys, pos 2, written K; the N-terminal amine is also possible. At least one PEG per dimer. The exact site and number of PEGs are not determined.
Question: How did the EC50 (Gp120 [2]) turn out when B12 was run?
Answer: 26.4 ng/mL

B13: NK 2K (other)
chain: B3 chain
modifications: 2,000 MW PEG coupled by NHS ester to a primary amine. The intended site is the added N-terminal Lys, pos 2, written K; the N-terminal amine is also possible. At least one PEG per dimer. The exact site and number of PEGs are not determined.
Question: What does the source list for B13?
Answer: EC50 (Gp120 [1]): 60.8 ng/mL; EC50 (Gp120 [2]): 7.45 ng/mL

B14: NK (other)
chain: B3 chain
Question: For B14, which EC50 (Gp120 [1]) is on record?
Answer: 15 ng/mL

B15: Q 20K Direct (other)
chain: B1 chain
modifications: 20,000 MW PEG coupled by NHS ester to a primary amine. The candidate sites are Lys pos 7 and Lys pos 100, both written K. At least one PEG per dimer. The exact site and number of PEGs are not determined.
Question: With B15 as the binder, how does the EC50 (Gp120 [3]) read?
Answer: 0.0355 ng/mL

B16: M78K (other)
chain: B1 chain with K7R, Q79K, K100R
Question: With B16 as the binder, how does the EC50 (Gp120 [1]) read?
Answer: 11.1 ng/mL
